Patent US20230295301A1 (SHANGHAI JUNSHI BIOSCIENCES, published 2023)
Numbering of substitutions follows the chain as printed. One block for each binder: values may come before it.

Assays:
[1] = target: T1, TIGIT on 293T-TIGIT cells (UniProt Q495A1 22-244, limits assumed); test: flow cytometry on 293T-TIGIT cells
T1 construct: whole, on cells
T1 sequence (looked up): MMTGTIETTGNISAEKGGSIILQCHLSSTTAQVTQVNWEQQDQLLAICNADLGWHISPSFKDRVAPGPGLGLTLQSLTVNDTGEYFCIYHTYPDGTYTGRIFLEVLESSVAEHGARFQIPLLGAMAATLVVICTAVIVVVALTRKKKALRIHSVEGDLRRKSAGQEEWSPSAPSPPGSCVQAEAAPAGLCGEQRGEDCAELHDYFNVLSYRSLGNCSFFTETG
Experimental: (§1) Then the above cell mixture was incubated with 5 μL of APC-labeled murine secondary antibody (Southern Biotech) at 4° C. for 20 min, and the secondary antibody bound onto the cells was detected. The control antibody was selected from commercially available CTLA4 monoclonal antibody L3D10 (BioLegend) and TIGIT monoclonal antibody MBSA43 (eBioscience).

[2] = target: T2, huCTLA-4 (human, UniProt P16410 36-161); test: ForteBio
T2 construct: also called human CTLA (huCTLA) antigen; huCTLA4 recombinant protein
T2 sequence: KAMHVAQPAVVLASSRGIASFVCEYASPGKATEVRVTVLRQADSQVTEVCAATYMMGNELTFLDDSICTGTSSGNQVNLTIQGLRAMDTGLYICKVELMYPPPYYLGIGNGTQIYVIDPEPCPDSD

[3] = target: T3, BTLA on 293T-BTLA cells (UniProt Q7Z6A9 31-289, limits assumed); test: flow cytometry on 293T-BTLA cells
T3 construct: whole, on cells
Experimental: as §1

[4] = target: T4, huCTLA-4 ECD (his-tag) (human, UniProt P16410 37-162); test: ELISA, coated huCTLA-4 his
T4 construct: also called HX1 hCTLA4 his; HX1 huCTLA4 his; not shown: his-tag
T4 sequence: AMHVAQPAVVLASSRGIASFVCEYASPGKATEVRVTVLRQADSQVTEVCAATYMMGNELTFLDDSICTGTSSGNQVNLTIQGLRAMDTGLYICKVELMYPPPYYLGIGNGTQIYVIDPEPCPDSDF
Experimental: (§2) HX1 hCTLA4 his was diluted with PBS (Hyclone) to 1.0 μg/mL, and the dilution was added to a microplate at 100 μL/well. The plate was let stand in an incubator at 37° C. and coated for 90 min and then washed, and 2% BSA was added to the plate at 200 μL/well. The plate was incubated in an incubator at 37° C. for 90 min and then washed. The humanized anti-CTLA-4 antibodies in Table 4 and the control antibody (ipilimumab) were diluted with a diluent (2% BSA) to 1000 ng/mL. The dilution performed each time was not higher than 10-fold. Then, the humanized antibodies and the control antibody were serially diluted 2.5-fold on a sample dilution plate. All the humanized antibody solutions and the control antibody solution were added to a microplate at 100 μL/well. The plate was incubated in an incubator at 37° C. for 60 min and then washed. An HRP-conjugated goat anti-human antibody IgG (Fc specific) was diluted 5000-fold with 2% BSA, and the dilution was added to the microplate at 100 μL/well. The plate was incubated in an incubator at 37° C. for 60 min and then washed. The color development solution TMB was added at 100 μL/well, during which bubbles were avoided. Color development was allowed at 37° C. for 15 min in the dark and then terminated by adding 2 M hydrochloric acid solution at 100 μL/well, during which bubbles were avoided. Reading (wavelength: 450/620 nm) was done within 10 min using a microplate reader.

[5] = target: T4, huCTLA-4 ECD (his-tag); test: competition ELISA, coated huCTLA-4 his, competitor hCD80 Fc
Experimental: HX1 huCTLA4 his was diluted with PBS (Hyclone) to 1.0 μg/mL, and the dilution was added to a microplate at 100 μL/well. The plate was let stand in an incubator at 37° C. and incubated for 90 min and then washed, and 2% BSA was added to the plate at 200 μL/well. The plate was incubated in an incubator at 37° C. for 90 min and then washed. MX2 hCD80 Fc was diluted with 2% BSA to 5.0 μg/mL, and the dilution was used to dilute samples. The chimeric antibodies and the control antibody ipilimumab were diluted to 100 μg/mL. The dilution performed each time was not higher than 10-fold. Then, the chimeric antibodies and the control antibody were serially diluted 2.5-fold on a sample dilution plate. All the chimeric antibody solutions and the control antibody solution were added to a microplate at 100 μL/well. The plate was incubated in an incubator at 37° C. for 90 min and then washed. An HRP-conjugated goat anti-mouse antibody IgG (Fc specific) (Sigma, Catalog No. A2554) was diluted 5000-fold with 2% BSA, and the dilution was added to the microplate at 100 μL/well. The plate was incubated in an incubator at 37° C. for 60 min and then washed. The color development solution TMB was added at 100 μL/well, during which bubbles were avoided. Color development was allowed at 37° C. for 15 min in the dark and then terminated by adding 2 M hydrochloric acid solution at 100 μL/well, during which bubbles were avoided. Reading (wavelength: 450/620 nm) was done within 10 min using a microplate reader.

[6] = target: T2, huCTLA-4; test: FACS blocking, huCTLA4 recombinant protein on CD86-expressing CHO cells; CD86-expressing CHO cells
Experimental: (§3) The chimeric antibodies in Table 3 and the control antibody ipilimumab (serially diluted 3-fold from an initial concentration of 30 μg/mL) were each added to CD80- or CD86-expressing CHO cells (constructed in-house by Junmeng) together with a certain concentration of huCTLA4 recombinant protein. After they were co-incubated at room temperature for 30 min, a fluorescent secondary antibody (PE-anti human IgG4) (Southern biotech) was added to determine the abilities of the chimeric antibodies to block the binding of huCTLA-4 to the CD80/CD86-expressing cells.

[7] = target: T5, huCTLA-4 expressed on cells (human, UniProt P16410 36-223); test: FACS on huCTLA-4-expressing CHO cells
T5 construct: the construct in the cells is not described; also called HuCTLA-4-expressing CHO cells; huCTLA-4-expressing Jurkat effector cells
T5 sequence: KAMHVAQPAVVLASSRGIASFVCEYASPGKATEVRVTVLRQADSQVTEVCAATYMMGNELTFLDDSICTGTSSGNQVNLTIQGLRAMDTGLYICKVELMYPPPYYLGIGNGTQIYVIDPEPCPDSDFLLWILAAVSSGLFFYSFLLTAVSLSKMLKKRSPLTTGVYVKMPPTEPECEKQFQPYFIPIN
Experimental: (§4) 6.2 FACS Detection of Binding of Chimeric Antibodies to huCTLA-4-Expressing Cells HuCTLA-4-expressing cells (constructed in-house by Junmeng; CHO from ATCC) were co-incubated with each of the chimeric antibodies in Table 3 and the control antibody (ipilimumab) (serially diluted 3-fold from an initial concentration of 10 μg/mL) at room temperature for 30 min, and then a fluorescent secondary antibody (PE-anti human IgG) was added to detect the binding of the chimeric antibodies to the huCTLA-4-expressing cells.

[8] = target: T2, huCTLA-4; test: FACS blocking, huCTLA4 recombinant protein on CD80-expressing CHO cells; CD80-expressing CHO cells
Experimental: as §3

[9] = target: T4, huCTLA-4 ECD (his-tag); test: ELISA: huCTLA-4 his coated at 1.0 µg/mL, antibody 2.5-fold dilutions from 1000 ng/mL, HRP goat anti-human IgG (Fc), OD 450 nm; unit from the axis 'Log ng/mL'
Experimental: as §2, with “The chimeric” for “The humanized anti-CTLA-4”, “Table 3” for “Table 4”, “the chimeric” for “the humanized”, “washed. A horseradish peroxidase (HRP)-conjugated” for “washed. An HRP-conjugated”, “IgG (Sigma, Catalog No. A0170)” for “IgG”, “avoided. […]” for “avoided. Color development was allowed at 37° C. for 15 min in the dark and then terminated by adding 2 M hydrochloric acid solution at 100 μL/well, during which bubbles were avoided.”

[10] = target: T5, huCTLA-4 expressed on cells; test: FACS: huCTLA-4-expressing CHO cells, antibody 3-fold dilutions from 10 µg/mL, PE anti-human IgG; unit from the axis 'log(JS007 concentration (ng/mL))'
Experimental: as §4

- Kd [2]: < 0.001 nM
B1: 5B9.1 (antibody, V domains shown)
VH: EVQLQQSGPELVKPGASVKMSCKASGYTFTDYYMKWMKQSHGKSLEWIGHINPNNGDTFYNQKFTGKATLTVDKSSSTASMHLNSLTSEDSAVYYCARGGDGRGTWFAYWGQGTLVTVSS
VL: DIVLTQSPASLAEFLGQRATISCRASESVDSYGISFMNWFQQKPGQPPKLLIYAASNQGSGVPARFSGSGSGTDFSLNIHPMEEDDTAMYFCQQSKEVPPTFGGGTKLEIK
notes: Murine hybridoma antibody
- binding result [1]: no binding (tested: 1 µg of hybridoma antibody)
- binding result [3]: no binding (tested: 1 µg of hybridoma antibody)

- EC50 [4]: 0.0129 µg/mL
- IC50 [5]: 0.187 µg/mL
- IC50 [6]: 0.253 ng/mL
- EC50 [7]: 0.486 µg/mL
- IC50 [8]: 0.00121 µg/mL
B2: JS007-20 (antibody, V domains shown)
VH: B1 VH
VL: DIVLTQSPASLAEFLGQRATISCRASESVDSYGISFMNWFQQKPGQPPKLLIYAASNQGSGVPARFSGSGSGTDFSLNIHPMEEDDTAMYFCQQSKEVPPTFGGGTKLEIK
notes: also called JS007-20 chimeric antibody

- Kd [2]: < 0.001 nM
B3: 3E6.1 (antibody, V domains shown)
VH: EVKLVESGGGLVQPGGSLRLSCATSGFTFTDYYMSWVRQPPGKALEWLGFIRNKANGFTAEYSASVKGRFTISRDNSQSILYLQMNTLRAEDSATYYCARDSLAYPHYYAMDYWGQGTSVTVSS
VL: QIVLTQSPALMSASPGEKVTMTCSASSSVSYMYWYQQKPRSSPKPWIYLTSNLASGVPVRFSGSGSGTSYSLTISSMEAEDAATYYCQQWSSNSFTFGSGTKLEIK
notes: Murine hybridoma antibody
- binding result [1]: no binding (tested: 1 µg of hybridoma antibody)
- binding result [3]: no binding (tested: 1 µg of hybridoma antibody)

- EC50 [9]: ~4010 µg/mL
B4: JS007-11 (antibody, V domains shown)
VH: EVQLQQSGAELVKSGASVKLSCTGSGFNIKDTYMHWVKQRPEEGLEWIGRIDPANGNTKSDPKFQGKATITADTSSNTAYLQLSSLTSVDTAVYYCARSMTTDPFTYWGQGTLVTVSS
VL: DIVMTQSQKFMSTSVGDSVSVTCKASQNVGTYVAWYQQKPGQSPKPLIYSTSYRYSGVPDRFTGSGSGTDFTLTISNVQSEDLAEYFCHQYDTYPLTFGAGTKLELK
notes: also called chimeric antibody JS007-11 (4B7.1-1 VH with 4B7.1-1 VL)

- EC50 [10]: 0.00418 µg/mL
- EC50 [9]: ~788 µg/mL
B5: JS007-1 (antibody, V domains shown)
VH: DVQLQESGQGLVKPSQSLSLTCSVTGYSITSGYYWNWIRQFPGNKLEWLGYIGYDGSNYYNPSLKNRISITRDTSKNQFFLKLNSVTSEDTATYFCARNYYSGYFDFWGQGTTLTVSS
VL: DIVMTQSQKFMSTSVGDRVSVTCKASQIVGSYVAWYQQKLGQSPKALIYSTSYRHSGVPDRFTGSGSGTDFTLTISNVQSEDLAEYFCQQHHLPLTFGAGTKLEIK
notes: also called chimeric antibody JS007-1 (1A5.1 VH with 1A5.1 VL)

- Kd [2]: 1.74 nM
B6: 1A5.1 (antibody, V domains shown)
VH: B5 VH
VL: B5 VL
notes: Murine hybridoma antibody
- binding result [1]: no binding (tested: 1 µg of hybridoma antibody)
- binding result [3]: no binding (tested: 1 µg of hybridoma antibody)

- EC50 [4]: 0.0172 µg/mL
- IC50 [5]: 0.19 µg/mL
- IC50 [6]: 0.196 ng/mL
- EC50 [7]: 0.249 µg/mL
- IC50 [8]: 0.000699 µg/mL
B7: JS007-3 (antibody, V domains shown)
VH: B5 VH
VL: B4 VL
notes: also called JS007-3 chimeric antibody

- EC50 [4]: 0.0197 µg/mL
- IC50 [5]: 0.19 µg/mL
- IC50 [6]: 0.0816 ng/mL
- EC50 [7]: 0.189 µg/mL
- IC50 [8]: 0.000398 µg/mL
B8: JS007-15 (antibody, V domains shown)
VH: B5 VH with Q9P, G26A, L49M, Y59N, S88T, F95Y, N99D, F107S
VL: B4 VL
notes: also called JS007-15 chimeric antibody
